According to article PMC5388898 (Biomacromolecules, 2017):

Biological target: epidermal growth factor receptor (EGFR) on A431 cells (Homo sapiens, endogenous on A431 cells, UniProt P00533)
Experiment: flow cytometry on cells

B1: Fc5^FL-ELP^DB (VHH)
VHH: EVQLQASGGGLVQAGGSLRLSCAASGFKITHYTMGWFRQAPGKEREFVSRITWGGDNTFYSNSVKGRFTISRDNAKNTVYLQMNSLKPEDTADYYCAAGSTSTATPLRVDYWGKGTQVTVSS
B1: no binding (tested: 1 μM).
